In PMC10714720:

Test system: T1, QseB (rQseB) (Glaesserella parasuis serovar 5 strain CF7066), ORF:6fe33d28
T1 sequence: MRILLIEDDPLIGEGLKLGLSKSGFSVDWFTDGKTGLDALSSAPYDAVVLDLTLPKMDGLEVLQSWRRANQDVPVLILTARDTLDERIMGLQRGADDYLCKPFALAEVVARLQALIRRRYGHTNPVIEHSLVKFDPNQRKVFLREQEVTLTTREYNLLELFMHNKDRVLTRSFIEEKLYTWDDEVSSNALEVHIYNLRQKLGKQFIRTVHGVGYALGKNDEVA
Assay: EMSA
Conditions: 50 mM Tris, 10 mM MgCl2, 0.1 mM DTT

Sequence | binding
AAATTGCTCCTAGTGTTTATTAGTAAAAGCATTATTGCTTTGTTGAGTGTATTAAAACAGAGAAATCTTAAGAAAGTCTTAAGATAAAAAAATTTATTTTTAGACAAAATCTAATAAAAAAGCGGCAAGATTCGTAAATCCTACCGCTTAGATCACATTATGAAAAAATTAGAATCTATAGTTTGCCCCAATAA (double strand) [qseB promoter (Cy5.5-qseB)] | binds
GAAGAACTTACGCTGAGTTGTTTAAATAGCTCGTTGAGCAAGGTGAATCCTCAGAAGAGTATGTCGAAGTAATGGGGCATATGCAAGTAGAAATAGATTTAGAAATGATCAAAACCTGAATCTGAAATATTATTTTAAATATATAGTCTTAACTGTCTTAGGAAAAGGCAGTAGAGATAGGATGAGATAACAGT (double strand) [capD promoter (Cy5.5-capD)] | binds
